Activity data for 7 molecules are collected here from patent publication US20250002945, “NEW TALE PROTEIN SCAFFOLDS WITH IMPROVED ON-TARGET/OFF-TARGET ACTIVITY RATIOS” (CELLECTIS SA, published 2025).

Holding throughout (test): cell_activity; T cells, mostly above 70%
Holding throughout (settings): tags: SV40 NLS; FokI fusion

One series concerns the target T1, CISH (2) left V2 TALEN (synthetic, UniProt Q56830 SEQ:15-719).
T1 chain: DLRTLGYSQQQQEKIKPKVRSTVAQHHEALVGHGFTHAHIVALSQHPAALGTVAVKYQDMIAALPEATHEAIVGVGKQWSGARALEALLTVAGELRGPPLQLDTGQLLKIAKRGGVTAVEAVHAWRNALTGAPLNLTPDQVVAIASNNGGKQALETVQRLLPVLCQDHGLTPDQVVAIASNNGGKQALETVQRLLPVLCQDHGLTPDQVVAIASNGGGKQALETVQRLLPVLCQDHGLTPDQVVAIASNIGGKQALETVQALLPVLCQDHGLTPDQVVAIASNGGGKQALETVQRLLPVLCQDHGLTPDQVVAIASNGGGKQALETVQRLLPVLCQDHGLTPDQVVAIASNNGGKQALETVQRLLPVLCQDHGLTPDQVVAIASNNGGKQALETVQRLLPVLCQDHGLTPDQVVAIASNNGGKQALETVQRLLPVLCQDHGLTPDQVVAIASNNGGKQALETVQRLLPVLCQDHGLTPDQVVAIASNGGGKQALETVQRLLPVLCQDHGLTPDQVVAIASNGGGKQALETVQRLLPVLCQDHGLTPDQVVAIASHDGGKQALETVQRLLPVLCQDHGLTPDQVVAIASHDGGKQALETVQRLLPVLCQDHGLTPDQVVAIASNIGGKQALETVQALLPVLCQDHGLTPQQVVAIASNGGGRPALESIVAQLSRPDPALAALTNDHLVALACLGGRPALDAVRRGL

A further series deals with T2, TIGIT left V2 TALEN (synthetic, UniProt Q56830 SEQ:15-719).
T2 chain: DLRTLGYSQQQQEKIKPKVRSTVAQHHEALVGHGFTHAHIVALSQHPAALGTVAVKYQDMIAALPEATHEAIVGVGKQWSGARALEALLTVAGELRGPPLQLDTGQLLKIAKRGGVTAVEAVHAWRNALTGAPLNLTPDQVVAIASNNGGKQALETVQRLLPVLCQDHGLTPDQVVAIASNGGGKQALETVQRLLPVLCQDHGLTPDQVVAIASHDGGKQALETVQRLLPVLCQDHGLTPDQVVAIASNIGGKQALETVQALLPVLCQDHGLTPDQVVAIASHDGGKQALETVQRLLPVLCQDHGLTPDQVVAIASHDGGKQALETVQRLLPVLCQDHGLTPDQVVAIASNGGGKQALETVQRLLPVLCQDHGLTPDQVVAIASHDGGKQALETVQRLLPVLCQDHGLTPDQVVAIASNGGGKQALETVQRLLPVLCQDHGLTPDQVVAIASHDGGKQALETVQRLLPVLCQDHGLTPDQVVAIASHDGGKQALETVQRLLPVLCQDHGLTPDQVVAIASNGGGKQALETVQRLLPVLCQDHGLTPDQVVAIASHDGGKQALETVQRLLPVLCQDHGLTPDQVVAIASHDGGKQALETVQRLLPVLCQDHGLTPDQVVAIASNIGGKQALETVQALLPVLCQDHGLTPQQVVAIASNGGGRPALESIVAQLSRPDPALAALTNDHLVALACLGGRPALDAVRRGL

The next series deals with T3, CISH (1) right V2 TALEN (synthetic, UniProt Q56830 SEQ:15-719).
T3 chain: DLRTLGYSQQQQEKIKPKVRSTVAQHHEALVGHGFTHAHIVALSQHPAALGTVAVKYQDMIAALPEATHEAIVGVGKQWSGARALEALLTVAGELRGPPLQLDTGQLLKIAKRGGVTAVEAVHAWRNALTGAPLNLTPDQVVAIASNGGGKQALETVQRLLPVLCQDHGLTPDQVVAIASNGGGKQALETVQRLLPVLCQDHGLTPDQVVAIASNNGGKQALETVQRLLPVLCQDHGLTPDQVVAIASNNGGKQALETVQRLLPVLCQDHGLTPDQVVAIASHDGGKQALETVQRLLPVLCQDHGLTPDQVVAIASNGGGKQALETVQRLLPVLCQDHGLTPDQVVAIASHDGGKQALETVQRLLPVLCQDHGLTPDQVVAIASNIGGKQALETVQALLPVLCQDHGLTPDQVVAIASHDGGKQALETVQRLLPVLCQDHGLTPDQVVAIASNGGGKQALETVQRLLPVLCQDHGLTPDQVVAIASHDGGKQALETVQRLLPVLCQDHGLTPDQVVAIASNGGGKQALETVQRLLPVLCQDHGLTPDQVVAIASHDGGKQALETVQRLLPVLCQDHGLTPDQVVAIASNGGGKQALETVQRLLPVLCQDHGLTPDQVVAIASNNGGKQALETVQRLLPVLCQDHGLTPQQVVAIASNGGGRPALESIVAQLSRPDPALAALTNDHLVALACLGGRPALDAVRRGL

A further series deals with T4, CISH (3) left V2 TALEN (synthetic, UniProt Q56830 SEQ:15-719).
T4 chain: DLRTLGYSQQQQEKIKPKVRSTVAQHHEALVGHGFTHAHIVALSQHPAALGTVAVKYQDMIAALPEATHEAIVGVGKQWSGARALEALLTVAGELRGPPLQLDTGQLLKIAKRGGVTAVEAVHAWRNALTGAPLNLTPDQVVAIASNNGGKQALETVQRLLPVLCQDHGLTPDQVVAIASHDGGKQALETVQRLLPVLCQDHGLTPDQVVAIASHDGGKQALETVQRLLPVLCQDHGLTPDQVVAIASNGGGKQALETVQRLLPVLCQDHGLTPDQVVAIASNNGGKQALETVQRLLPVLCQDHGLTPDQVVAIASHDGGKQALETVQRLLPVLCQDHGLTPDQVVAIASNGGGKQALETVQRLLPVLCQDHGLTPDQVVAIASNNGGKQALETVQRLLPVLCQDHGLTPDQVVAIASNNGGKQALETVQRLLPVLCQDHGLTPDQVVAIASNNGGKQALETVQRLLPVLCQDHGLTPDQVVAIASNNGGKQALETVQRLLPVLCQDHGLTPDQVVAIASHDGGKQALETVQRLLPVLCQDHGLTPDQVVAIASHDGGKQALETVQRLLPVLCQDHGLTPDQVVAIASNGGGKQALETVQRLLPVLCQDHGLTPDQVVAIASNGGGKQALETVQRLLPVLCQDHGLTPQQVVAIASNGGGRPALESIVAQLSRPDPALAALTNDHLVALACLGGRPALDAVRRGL

The next series has as its target T5, CISH (1) left V2 TALEN (synthetic, UniProt Q56830 SEQ:15-719).
T5 chain: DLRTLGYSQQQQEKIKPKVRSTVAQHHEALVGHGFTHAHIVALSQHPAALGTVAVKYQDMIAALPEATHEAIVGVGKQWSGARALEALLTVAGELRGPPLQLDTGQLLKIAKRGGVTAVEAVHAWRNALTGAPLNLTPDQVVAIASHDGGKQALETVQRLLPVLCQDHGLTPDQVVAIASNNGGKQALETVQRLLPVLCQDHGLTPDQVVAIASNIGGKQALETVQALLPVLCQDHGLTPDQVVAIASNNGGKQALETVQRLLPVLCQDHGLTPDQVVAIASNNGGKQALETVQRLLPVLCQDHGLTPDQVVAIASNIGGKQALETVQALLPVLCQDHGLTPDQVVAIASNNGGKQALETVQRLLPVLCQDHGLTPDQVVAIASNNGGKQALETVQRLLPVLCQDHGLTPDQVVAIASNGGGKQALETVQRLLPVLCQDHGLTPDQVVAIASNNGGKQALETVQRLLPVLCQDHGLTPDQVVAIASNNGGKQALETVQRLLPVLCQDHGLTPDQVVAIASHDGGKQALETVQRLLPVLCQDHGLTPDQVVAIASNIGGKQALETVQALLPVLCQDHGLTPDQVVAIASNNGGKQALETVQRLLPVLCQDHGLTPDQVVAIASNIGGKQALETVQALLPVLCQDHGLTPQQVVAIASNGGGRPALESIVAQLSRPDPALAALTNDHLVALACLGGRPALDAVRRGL

Another series concerns the target T6, CISH (2) right V2 TALEN (synthetic, UniProt Q56830 SEQ:15-719).
T6 chain: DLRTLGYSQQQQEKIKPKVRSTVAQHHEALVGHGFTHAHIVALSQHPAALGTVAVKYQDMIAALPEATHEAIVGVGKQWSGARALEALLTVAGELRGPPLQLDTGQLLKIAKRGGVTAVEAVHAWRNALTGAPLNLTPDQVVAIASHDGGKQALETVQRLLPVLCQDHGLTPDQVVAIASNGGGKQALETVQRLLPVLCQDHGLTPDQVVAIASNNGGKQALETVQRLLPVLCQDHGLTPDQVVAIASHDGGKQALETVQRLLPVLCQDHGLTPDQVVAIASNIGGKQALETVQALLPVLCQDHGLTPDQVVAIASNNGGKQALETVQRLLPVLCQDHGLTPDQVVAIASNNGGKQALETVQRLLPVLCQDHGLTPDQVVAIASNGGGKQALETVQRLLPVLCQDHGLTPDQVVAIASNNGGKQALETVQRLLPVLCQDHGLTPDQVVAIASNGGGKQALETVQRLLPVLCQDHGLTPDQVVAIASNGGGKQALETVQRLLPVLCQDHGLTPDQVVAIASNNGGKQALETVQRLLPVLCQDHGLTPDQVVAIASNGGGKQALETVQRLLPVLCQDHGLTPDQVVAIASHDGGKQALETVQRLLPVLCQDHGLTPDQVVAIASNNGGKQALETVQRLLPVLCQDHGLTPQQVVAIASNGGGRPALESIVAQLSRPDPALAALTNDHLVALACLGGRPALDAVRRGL

A further series deals with T7, TIGIT right V2 TALEN (synthetic, UniProt Q56830 SEQ:15-719).
T7 chain: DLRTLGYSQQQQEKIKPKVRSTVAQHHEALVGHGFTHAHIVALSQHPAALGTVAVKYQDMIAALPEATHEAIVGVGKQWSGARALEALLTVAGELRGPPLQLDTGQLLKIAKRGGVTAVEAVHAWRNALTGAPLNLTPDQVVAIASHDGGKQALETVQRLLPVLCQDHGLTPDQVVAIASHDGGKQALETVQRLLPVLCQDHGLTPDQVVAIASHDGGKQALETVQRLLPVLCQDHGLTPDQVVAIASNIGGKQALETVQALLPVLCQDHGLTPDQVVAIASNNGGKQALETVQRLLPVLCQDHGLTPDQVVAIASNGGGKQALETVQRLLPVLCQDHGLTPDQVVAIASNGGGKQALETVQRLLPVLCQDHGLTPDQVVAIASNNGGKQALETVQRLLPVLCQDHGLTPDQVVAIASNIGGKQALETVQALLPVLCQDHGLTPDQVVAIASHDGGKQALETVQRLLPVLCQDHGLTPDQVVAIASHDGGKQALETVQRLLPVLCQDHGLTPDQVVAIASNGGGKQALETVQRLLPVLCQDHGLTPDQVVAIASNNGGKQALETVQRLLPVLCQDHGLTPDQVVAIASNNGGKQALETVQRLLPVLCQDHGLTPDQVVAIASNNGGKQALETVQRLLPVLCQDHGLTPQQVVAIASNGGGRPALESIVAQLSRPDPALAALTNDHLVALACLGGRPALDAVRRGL

B1: CISH (2) left half-site (dsDNA)
DNA 1: TGGTATTGGGGTTCCAT
DNA 2: ATGGAACCCCAATACCA
The molecule B1 yielded an activity with CISH (2) left V2 TALEN of more than 50 % indels.

B2: TIGIT left half-site (dsDNA)
DNA 1: TGTCACCTCTCCTCCAC
DNA 2: GTGGAGGAGAGGTGACA
As to B2, the activity with TIGIT left V2 TALEN was more than 50 % indels.

B3: CISH (1) right half-site (dsDNA)
DNA 1: ACAGAGAGTGAGCCAAA
DNA 2: TTTGGCTCACTCTCTGT
In the series with CISH (1) right V2 TALEN, B3 yielded an activity of more than 50 % indels.

B4: CISH (3) left half-site (dsDNA)
DNA 1: TGCCTGCTGGGGCCTTC
DNA 2: GAAGGCCCCAGCAGGCA
The molecule B4 came in with an activity with CISH (3) left V2 TALEN of more than 50 % indels.

B5: CISH (1) left half-site (dsDNA)
DNA 1: TCGAGGAGGTGGCAGAG
DNA 2: CTCTGCCACCTCCTCGA
Turning to B5, the activity with CISH (1) left V2 TALEN is more than 50 % indels.

B6: CISH (2) right half-site (dsDNA)
DNA 1: CCGACAACACCTGCAGA
DNA 2: TCTGCAGGTGTTGTCGG
B6 had an activity with CISH (2) right V2 TALEN of more than 50 % indels.

B7: TIGIT right half-site (dsDNA)
DNA 1: ACCCAGGTCAACTGGGA
DNA 2: TCCCAGTTGACCTGGGT
Consider B7, for which the activity with TIGIT right V2 TALEN is more than 50 % indels.
